According to the supplement of paper PMC10598134:
± gives the standard deviation.

Assay: collision cross section of modified peptide (TIMS, N2, iRT-aligned); higher = larger / more extended gas-phase ion
Method in brief: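 Synthetic peptide pools (~100 fmol/µL in 2% acetonitrile/0.1% formic acid, iRT standard spiked 1:40) were separated on a 120-min nanoflow C18 gradient at 60 °C. They were analysed on a timsTOF Pro/HT (dda-PASEF, nitrogen, ~2.4 mbar) and identified with MaxQuant. 1/K0 was calibrated with three reference ions and aligned run-wise to the median iRT peptide deviation. Collision cross section came from the Mason-Schamp equation, averaging 1–3 technical replicates of the most abundant feature per charge state.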

[1] = charge state: 2, modification: hydroxyisobutyryl
[2] = charge state: 3, modification: hydroxyisobutyryl
[3] = charge state: 2, modification: Nitro (Y)
[4] = charge state: 2, modification: Malonyl
[5] = charge state: 2, modification: Biotin
[6] = charge state: 2, modification: Hydroxyproline
[7] = charge state: 2, modification: Butyryl
[8] = charge state: 3, modification: Butyryl
[9] = charge state: 2, modification: Dimethyl (K)
[10] = charge state: 3, modification: Dimethyl (K)
[11] = charge state: 2, modification: Acetyl (K)
[12] = charge state: 2, modification: GlyGly (K)
[13] = charge state: 3, modification: GlyGly (K)
[14] = charge state: 3, modification: Citrullination (R)
[15] = charge state: 2, modification: Succinyl

## ASEALLKQLK [_ASEALLK(Gluratylation)QLK_]
Charge state: 2, modification: Glutarylation
  collision cross section: 377.97 ± 0.1 Å²

## VGLQVVAVKAPGFGDNR [_VGLQVVAVK(hydroxyisobutyryl)APGFGDNR_]
[1]
  collision cross section: 453.58 ± 0.89 Å²
[2]
  collision cross section: 502.92 ± 2.8 Å²

## HIGFVYHPTK [_HIGFVY(Nitro (Y))HPTK_]
[3]
  collision cross section: 375.77 ± 0.17 Å²
Charge state: 3, modification: Nitro (Y)
  collision cross section: 448.27 ± 1.8 Å²

## VSFLSALEEYTK [_VSFLSALEEY(Nitro (Y))TK_]
[3]
  collision cross section: 400.94 ± 0.73 Å²

## IGNSYFKEEK [_IGNSYFK(Malonyl)EEK_]
[4]
  collision cross section: 378.34 Å²

## LLEEEDSKLK [_LLEEEDSK(Biotin)LK_]
[5]
  collision cross section: 405.12 ± 2.5 Å²

## YEEIVKEVSTYIK [_YEEIVK(Malonyl)EVSTYIK_]
[4]
  collision cross section: 438.59 ± 1.6 Å²

## PGLKGEQGEPGAPGIR [_PGLKGEQGEPGAP(Hydroxyproline)GIR_]
[6]
  collision cross section: 410.74 ± 0.55 Å²
Charge state: 3, modification: Hydroxyproline
  collision cross section: 508.4 ± 1.3 Å²

## VTLEVGKVIQQGR [_VTLEVGK(Propionyl)VIQQGR_]
Charge state: 2, modification: Propionyl
  collision cross section: 410.06 ± 0.37 Å²

## DTPTSAGPNSFNKGK [_DTPTSAGPNSFNK(Butyryl)GK_]
[7]
  collision cross section: 412.93 ± 0.78 Å²
[8]
  collision cross section: 464.51 ± 3.2 Å²

## VYIASSSGSTAIKK [_VYIASSSGSTAIK(Dimethyl (K))K_]
[9]
  collision cross section: 434.74 ± 1.3 Å²
[10]
  collision cross section: 497.25 ± 0.75 Å²

## IGNSYFKEEK [_IGNSYFK(Acetyl (K))EEK_]
[11]
  collision cross section: 372.71 ± 0.4 Å²

## FVDSKVGEFSGANK [_FVDSK(Formyl)VGEFSGANK_]
Charge state: 2, modification: Formyl
  collision cross section: 406.35 Å²

## AYPLADAHLTK [_AY(Nitro (Y))PLADAHLTK_]
[3]
  collision cross section: 382.67 ± 0.55 Å²

## ANEKTESSSAQQVAVSR [_ANEK(Methyl (K))TESSSAQQVAVSR_]
Charge state: 2, modification: Methyl (K)
  collision cross section: 440.42 Å²
Charge state: 3, modification: Methyl (K)
  collision cross section: 486.23 ± 1.8 Å²

## TGPPGSTGSR [_TGPP(Hydroxyproline)GSTGSR_]
[6]
  collision cross section: 312.97 ± 0.79 Å²

## SKLLFSNTAAQK [_SK(Biotin)LLFSNTAAQK_]
[5]
  collision cross section: 417.26 ± 2.9 Å²

## SEASSEFAKK [_SEASSEFAK(GlyGly (K))K_]
[12]
  collision cross section: 362.55 ± 0.39 Å²
[13]
  collision cross section: 429.79 ± 1.1 Å²

## IISSIEQKEENK [_IISSIEQK(Butyryl)EENK_]
[7]
  collision cross section: 408.13 ± 0.85 Å²
[8]
  collision cross section: 479 Å²

## SDSGKPYYYNSQTK [_SDSGK(Butyryl)PYYYNSQTK_]
[7]
  collision cross section: 426.68 ± 0.77 Å²

## TTGFYSGFSEVAEKR [_TTGFYSGFSEVAEK(Butyryl)R_]
[7]
  collision cross section: 442.26 ± 0.29 Å²

## HFGPVPPSQGRGR [_HFGPVPPSQGR(Citrullination (R))GR_]
[14]
  collision cross section: 445.8 Å²

## GYDVIAQAQSGTGK [_GY(Phospho (Y))DVIAQAQSGTGK_]
Charge state: 2, modification: Phospho (Y)
  collision cross section: 388.75 ± 0.77 Å²

## DAIHFYNKSLAEHR [_DAIHFYNK(Succinyl)SLAEHR_]
[15]
  collision cross section: 453.03 Å²
Charge state: 3, modification: Succinyl
  collision cross section: 520.54 ± 0.35 Å²

## FDDTNPEKEEAK [_FDDTNPEK(Butyryl)EEAK_]
[7]
  collision cross section: 399.47 ± 0.85 Å²
[8]
  collision cross section: 440.77 ± 2 Å²

## LEKTIDDLEEK [_LEK(Succinyl)TIDDLEEK_]
[15]
  collision cross section: 408.25 ± 0.55 Å²

## DTPTSAGPNSFNKGK [_DTPTSAGPNSFNK(GlyGly (K))GK_]
[12]
  collision cross section: 413.5 ± 3.1 Å²
[13]
  collision cross section: 464.37 ± 0.33 Å²

## SPSDSGYSYETIGKTTK [_SPSDSGYSYETIGK(hydroxyisobutyryl)TTK_]
[1]
  collision cross section: 457.69 ± 0.57 Å²
[2]
  collision cross section: 538.76 ± 2.8 Å²

## IQQELQTAKK [_IQQELQTAK(Dimethyl (K))K_]
[9]
  collision cross section: 374.44 ± 1.1 Å²
[10]
  collision cross section: 426.86 ± 2.1 Å²

## TQAEGQGQGRGLGLVSAVR [_TQAEGQGQGR(Citrullination (R))GLGLVSAVR_]
[14]
  collision cross section: 549.33 ± 0.79 Å²

## TQAYQDQKPGTSGLR [_TQAYQDQK(Dimethyl (K))PGTSGLR_]
[10]
  collision cross section: 464.17 ± 1.6 Å²

## SSFAYKDQNENR [_SSFAYK(Malonyl)DQNENR_]
[4]
  collision cross section: 401.56 ± 0.03 Å²

## VRLQTTLR [_VR(Citrullination (R))LQTTLR_]
Charge state: 2, modification: Citrullination (R)
  collision cross section: 344.05 ± 1.2 Å²

## AAQASDLEKIHLDEK [_AAQASDLEK(Acetyl (K))IHLDEK_]
[11]
  collision cross section: 454.7 ± 2.5 Å²
Charge state: 3, modification: Acetyl (K)
  collision cross section: 495.59 ± 1.3 Å²

## ISALQGKLSK [_ISALQGK(Dimethyl (K))LSK_]
[9]
  collision cross section: 355.29 ± 0.29 Å²
[10]
  collision cross section: 425.26 ± 1.1 Å²
